In patent US20210401961A1:

Molecular target: HB-EGF receptor (UniProt Q99075)
Assay: cell-based or functional assay

Sequence of UniProt Q99075 (Q99075 63-148 limits assumed): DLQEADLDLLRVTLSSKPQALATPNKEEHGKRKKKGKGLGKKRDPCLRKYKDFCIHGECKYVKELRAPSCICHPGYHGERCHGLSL

## CRM197-Alexa488 (from UniProt P00587 26-560)
  labelling of OV90 tumor cells with CRM197-Alexa488 after 24 hours (flow cytometry, 10 µg/mL): 98.2%
  percentage of CRM197-Alexa488 uptake by OV90 tumor cells after 4 hours (flow cytometry, 10 µg/mL): 82%
  percentage of OV90 tumor cells with CRM197-Alexa488 signal after 4 hours with trypan blue quenching (intracellular): 72.7%
  percentage of OV90 tumor cells with CRM197-Alexa488 signal after 24 hours with trypan blue quenching (intracellular): 97.6%
